According to IntAct's records for PubMed 35512704:

B1: Mothers against decapentaplegic homolog 4 (Homo sapiens), Q13485 (parent)
chain: MDNMSITNTPTSNDACLSIVHSLMCHRQGGESETFAKRAIESLVKKLKEKKDELDSLITAITTNGAHPSKCVTIQRTLDGRLQVAGRKGFPHVIYARLWRWPDLHKNELKHVKYCQYAFDLKCDSVCVNPYHYERVVSPGIDLSGLTLQSNAPSSMMVKDEYVHDFEGQPSLSTEGHSIQTIQHPPSNRASTETYSTPALLAPSESNATSTANFPNIPVASTSQPASILGGSHSEGLLQIASGPQPGQQQNGFTGQPATYHHNSTTTWTGSRTAPYTPNLPHHQNGHLQHHPPMPPHPGHYWPVHNELAFQPPISNHPAPEYWCSIAYFEMDVQVGETFKVPSSCPIVTVDGYVDPSGGDRFCLGQLSNVHRTEAIERARLHIGKGVQLECKGEGDVWVRCLSDHAVFVQSYYLDREAGRAPGDAVHKIYPSAYIKVFDLRQCHRQMQQQAATAQAAAAAQAAAVAGNIPGPGSVGGIAPAISLSAAAGIGVDDLRRLCILRMSFVKGWGPDYPRQSIKETPCWIEIHLHRALQLLDEVLHTMPIADPQPLD
partner: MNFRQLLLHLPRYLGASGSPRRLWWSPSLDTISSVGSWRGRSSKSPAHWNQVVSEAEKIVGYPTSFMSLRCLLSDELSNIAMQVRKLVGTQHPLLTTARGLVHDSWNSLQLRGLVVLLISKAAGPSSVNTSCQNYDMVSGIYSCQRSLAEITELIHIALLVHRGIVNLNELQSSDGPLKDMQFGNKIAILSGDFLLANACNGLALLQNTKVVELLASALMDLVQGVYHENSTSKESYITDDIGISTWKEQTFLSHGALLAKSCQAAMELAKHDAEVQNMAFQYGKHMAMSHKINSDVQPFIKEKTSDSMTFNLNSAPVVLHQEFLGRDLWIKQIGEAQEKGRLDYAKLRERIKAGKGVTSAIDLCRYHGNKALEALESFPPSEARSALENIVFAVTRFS
B2: Mothers against decapentaplegic homolog 4 (Homo sapiens), Q13485 (parent)
chain: B1 chain
partner: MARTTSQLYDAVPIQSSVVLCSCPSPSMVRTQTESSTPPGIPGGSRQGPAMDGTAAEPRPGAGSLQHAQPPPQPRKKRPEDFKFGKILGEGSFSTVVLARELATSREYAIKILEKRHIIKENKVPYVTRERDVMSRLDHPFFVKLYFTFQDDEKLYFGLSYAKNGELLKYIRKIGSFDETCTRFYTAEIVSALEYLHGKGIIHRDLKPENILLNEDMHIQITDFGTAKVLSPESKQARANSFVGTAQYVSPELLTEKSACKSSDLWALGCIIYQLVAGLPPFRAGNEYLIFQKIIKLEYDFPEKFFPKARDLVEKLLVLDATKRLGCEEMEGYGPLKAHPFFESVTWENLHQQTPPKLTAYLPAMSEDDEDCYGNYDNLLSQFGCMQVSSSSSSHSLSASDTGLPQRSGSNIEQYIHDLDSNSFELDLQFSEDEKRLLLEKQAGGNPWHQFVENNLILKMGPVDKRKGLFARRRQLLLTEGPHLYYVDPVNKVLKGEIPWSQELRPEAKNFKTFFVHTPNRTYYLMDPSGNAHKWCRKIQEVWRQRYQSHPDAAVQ
B3: Mothers against decapentaplegic homolog 4 (Homo sapiens), Q13485 (parent)
chain: B1 chain
partner: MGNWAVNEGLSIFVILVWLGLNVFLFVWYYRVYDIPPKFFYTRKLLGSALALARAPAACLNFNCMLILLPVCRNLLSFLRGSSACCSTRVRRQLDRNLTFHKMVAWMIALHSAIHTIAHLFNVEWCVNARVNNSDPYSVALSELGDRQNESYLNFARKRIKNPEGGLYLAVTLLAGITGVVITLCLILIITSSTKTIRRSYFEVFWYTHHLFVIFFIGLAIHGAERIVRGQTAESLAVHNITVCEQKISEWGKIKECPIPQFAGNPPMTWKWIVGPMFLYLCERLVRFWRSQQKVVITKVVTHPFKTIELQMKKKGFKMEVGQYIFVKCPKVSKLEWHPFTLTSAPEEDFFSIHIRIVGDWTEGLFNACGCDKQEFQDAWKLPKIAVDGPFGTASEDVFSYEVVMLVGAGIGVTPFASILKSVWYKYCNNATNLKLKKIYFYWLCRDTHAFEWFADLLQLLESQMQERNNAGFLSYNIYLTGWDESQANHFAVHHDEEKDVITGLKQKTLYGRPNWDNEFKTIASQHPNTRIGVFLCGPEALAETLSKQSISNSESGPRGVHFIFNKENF
B4: Mothers against decapentaplegic homolog 4 (Homo sapiens), Q13485 (parent)
chain: B1 chain
partner: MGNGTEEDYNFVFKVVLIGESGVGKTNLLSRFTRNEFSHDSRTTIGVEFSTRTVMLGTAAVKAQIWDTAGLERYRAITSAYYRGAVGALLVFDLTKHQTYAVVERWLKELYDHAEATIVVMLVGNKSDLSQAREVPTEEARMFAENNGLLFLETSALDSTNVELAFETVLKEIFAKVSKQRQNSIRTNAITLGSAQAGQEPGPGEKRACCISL
B5: Mothers against decapentaplegic homolog 4 (Homo sapiens), Q13485 (parent)
chain: B1 chain
partner: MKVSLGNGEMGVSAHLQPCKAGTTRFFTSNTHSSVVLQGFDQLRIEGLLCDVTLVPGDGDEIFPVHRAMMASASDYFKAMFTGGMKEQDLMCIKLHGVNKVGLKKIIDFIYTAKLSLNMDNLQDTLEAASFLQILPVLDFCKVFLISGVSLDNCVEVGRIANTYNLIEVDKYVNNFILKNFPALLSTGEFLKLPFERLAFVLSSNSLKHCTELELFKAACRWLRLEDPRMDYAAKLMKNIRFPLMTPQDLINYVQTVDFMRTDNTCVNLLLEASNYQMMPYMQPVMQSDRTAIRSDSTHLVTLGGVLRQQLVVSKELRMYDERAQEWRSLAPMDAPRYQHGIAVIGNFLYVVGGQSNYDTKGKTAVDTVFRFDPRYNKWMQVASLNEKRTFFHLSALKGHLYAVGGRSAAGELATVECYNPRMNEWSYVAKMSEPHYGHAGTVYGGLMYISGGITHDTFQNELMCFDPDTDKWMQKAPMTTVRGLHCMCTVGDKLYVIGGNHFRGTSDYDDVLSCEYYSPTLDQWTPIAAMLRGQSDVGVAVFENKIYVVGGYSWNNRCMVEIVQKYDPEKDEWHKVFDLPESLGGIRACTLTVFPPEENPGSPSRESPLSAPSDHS
B6: Mothers against decapentaplegic homolog 4 (Homo sapiens), Q13485 (parent)
chain: B1 chain
partner: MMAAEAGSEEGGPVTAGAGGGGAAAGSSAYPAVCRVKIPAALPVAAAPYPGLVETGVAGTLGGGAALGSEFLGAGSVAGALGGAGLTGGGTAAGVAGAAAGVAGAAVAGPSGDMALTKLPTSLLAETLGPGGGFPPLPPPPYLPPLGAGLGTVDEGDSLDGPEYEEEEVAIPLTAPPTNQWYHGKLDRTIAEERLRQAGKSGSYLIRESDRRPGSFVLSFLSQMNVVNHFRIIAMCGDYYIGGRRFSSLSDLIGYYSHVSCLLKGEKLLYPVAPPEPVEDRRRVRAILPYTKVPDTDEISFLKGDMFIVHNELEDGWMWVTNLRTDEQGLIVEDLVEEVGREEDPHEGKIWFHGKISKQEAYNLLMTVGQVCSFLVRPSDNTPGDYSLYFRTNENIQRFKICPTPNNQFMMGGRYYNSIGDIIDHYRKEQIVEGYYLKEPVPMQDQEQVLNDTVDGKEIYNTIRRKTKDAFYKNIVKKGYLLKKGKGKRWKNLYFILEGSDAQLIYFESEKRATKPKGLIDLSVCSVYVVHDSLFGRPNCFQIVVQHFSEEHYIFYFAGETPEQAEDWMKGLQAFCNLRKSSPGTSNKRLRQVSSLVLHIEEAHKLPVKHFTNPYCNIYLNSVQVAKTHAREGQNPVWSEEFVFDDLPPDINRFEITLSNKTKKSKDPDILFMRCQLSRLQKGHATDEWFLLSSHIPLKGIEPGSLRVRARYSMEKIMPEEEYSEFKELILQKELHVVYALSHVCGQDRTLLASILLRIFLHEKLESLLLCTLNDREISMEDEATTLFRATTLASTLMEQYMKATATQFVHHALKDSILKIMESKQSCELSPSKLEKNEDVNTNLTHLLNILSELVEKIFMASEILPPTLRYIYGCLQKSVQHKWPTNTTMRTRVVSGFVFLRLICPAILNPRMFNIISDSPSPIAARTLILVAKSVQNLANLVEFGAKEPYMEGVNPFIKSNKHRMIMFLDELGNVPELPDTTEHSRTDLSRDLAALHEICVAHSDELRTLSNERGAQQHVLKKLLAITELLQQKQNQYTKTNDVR
B7: Mothers against decapentaplegic homolog 4 (Homo sapiens), Q13485 (parent)
chain: B1 chain
partner: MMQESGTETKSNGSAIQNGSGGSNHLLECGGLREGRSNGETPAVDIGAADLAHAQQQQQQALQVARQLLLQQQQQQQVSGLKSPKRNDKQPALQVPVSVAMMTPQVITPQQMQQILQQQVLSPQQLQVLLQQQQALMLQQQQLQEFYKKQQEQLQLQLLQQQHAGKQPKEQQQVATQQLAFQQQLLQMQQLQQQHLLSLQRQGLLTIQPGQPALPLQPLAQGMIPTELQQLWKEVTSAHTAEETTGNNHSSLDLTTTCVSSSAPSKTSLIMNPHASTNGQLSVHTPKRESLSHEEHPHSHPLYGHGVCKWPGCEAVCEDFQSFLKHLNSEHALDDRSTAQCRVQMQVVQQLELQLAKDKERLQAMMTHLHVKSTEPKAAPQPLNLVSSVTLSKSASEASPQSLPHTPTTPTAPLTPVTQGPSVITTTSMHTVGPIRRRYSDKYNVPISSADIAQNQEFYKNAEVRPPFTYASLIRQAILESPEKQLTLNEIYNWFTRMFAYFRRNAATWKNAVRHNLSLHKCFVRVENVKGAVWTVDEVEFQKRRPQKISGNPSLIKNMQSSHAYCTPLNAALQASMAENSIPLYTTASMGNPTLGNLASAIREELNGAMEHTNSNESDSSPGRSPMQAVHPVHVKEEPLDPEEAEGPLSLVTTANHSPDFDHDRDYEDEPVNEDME

Variants of: B1
Conditions: with dlp1_human PDSS2, Q86YH6
With R361H the “effect of a mutation on the interaction” value was “with no effect”.

Variants of: B1
Conditions: with dlp1_human PDSS2, Q86YH6
Remark: another data set of the same source
G386D was tested, and the “effect of a mutation on the interaction” value was “with no effect”.

Variants of: B2
Conditions: with pdpk1_human PDPK1, O15530
With R361H the “effect of a mutation on the interaction” value was “with no effect”.

Variants of: B3
Conditions: with cy24b_human CYBB
For R361H, the “effect of a mutation on the interaction” value was “with no effect”.

Variants of: B4
Conditions: with rab25_human RAB25, P57735
In the case of G386D, the “effect of a mutation on the interaction” value is reported as “with no effect”.

Variants of: B5
Conditions: with klhl9_human KLHL9, Q9P2J3
In the case of G386D, the “effect of a mutation on the interaction” value is reported as “with no effect”.

Variants of: B5
Conditions: with klhl9_human KLHL9, Q9P2J3
Remark: another data set of the same source
In the case of G386D, the “effect of a mutation on the interaction” value is reported as “increasing interaction strength”.

Variants of: B6
Conditions: with rasa1_human RASA1, P20936
For R361H, the “effect of a mutation on the interaction” value was “with no effect”.

Variants of: B7
Conditions: with foxp1_human FOXP1, Q9H334
In the case of G386D, the “effect of a mutation on the interaction” value is reported as “with no effect”.
